Columns and labels:
[1] = molecular target: T1, human ASCT2 (system ASC amino acid transporter 2, SLC1A5) (human, UniProt Q15758 1-541); test: cell-based or functional assay
T1 sequence (looked up): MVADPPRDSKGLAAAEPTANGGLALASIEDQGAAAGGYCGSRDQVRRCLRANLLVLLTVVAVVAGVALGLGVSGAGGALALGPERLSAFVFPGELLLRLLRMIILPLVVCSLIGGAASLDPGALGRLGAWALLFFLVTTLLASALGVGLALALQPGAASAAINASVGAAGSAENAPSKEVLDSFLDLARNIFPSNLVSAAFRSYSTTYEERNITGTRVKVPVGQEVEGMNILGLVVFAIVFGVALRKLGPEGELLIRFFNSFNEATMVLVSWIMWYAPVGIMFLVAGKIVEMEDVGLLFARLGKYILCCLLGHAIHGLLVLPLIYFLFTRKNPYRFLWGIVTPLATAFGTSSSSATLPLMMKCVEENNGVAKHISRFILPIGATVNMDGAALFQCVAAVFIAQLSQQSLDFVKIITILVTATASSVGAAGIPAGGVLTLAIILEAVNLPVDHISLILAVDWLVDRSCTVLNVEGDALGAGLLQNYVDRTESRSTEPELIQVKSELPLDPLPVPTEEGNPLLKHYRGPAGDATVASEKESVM

[2] = molecular target: T1, human ASCT2 (system ASC amino acid …); test: binding to CHOK1 cells stably expressing human ASCT2; clones conjugated to tubulysin AZ1508 per paragraph 353
[3] = molecular target: T1, human ASCT2 (system ASC amino acid …); test: cell-based or functional assay; remark: listed apart in the source
[4] = molecular target: T2, cynomolgus monkey ASCT2 (cynomolgus monkey (Macaca fascicularis), UniProt G7PXZ3 1-542); test: binding to CHOK1 cells stably expressing cyno ASCT2; clones conjugated to tubulysin AZ1508 per paragraph 353
T2 construct: whole, on cells; Present on stably transfected CHOK1 cells or endogenously on the cyno cell line CynoMK1; also called cyno ASCT2; CynoASCT2
T2 sequence: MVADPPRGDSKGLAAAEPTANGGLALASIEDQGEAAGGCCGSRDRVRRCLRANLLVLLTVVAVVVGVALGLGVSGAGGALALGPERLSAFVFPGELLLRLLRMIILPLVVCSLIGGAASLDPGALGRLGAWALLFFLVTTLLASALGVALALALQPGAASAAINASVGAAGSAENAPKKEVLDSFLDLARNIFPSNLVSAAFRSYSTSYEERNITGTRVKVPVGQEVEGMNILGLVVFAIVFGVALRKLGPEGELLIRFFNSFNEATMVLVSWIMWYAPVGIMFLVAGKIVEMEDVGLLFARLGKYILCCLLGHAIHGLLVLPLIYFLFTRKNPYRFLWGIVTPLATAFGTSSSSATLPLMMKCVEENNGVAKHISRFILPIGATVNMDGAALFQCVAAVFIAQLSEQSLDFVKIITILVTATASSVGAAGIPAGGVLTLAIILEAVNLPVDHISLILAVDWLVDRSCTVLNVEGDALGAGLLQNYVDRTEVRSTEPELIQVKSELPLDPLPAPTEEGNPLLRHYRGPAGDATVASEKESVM

[5] = molecular target: T1, human ASCT2 (system ASC amino acid …); test: cell-based or functional assay; remark: listed apart in the source
[6] = molecular target: T2, cynomolgus monkey ASCT2; test: cell-based or functional assay
[7] = molecular target: T2, cynomolgus monkey ASCT2; test: flow cytometry, titration of fluorophore-labelled antibody on CHOK1 cells stably expressing cyno ASCT2
Description: (§1) Human, cynomolgous monkey, and CHO-derived cell lines expressing ASCT2 were utilized to assessed binding affinity and cross reactivity of ASCT2-specific antibodies. Apparent affinities were measured by titrating fluorophore labeled antibodies.
(§2) Results for human cancer cell line Ca127 are shown in FIG. 6A; results for human cancer cell line FaDu are shown in FIG. 6B; results for human cancer cell line SSC15 are shown in FIG. 6C; results for human cancer cell line WiDr are shown in FIG. 6D; results for CHOK1 cells stably expressing human ASCT2 are shown in FIG. 6E; results for CHOK1 cells stably expressing cyno ASCT2 are shown in FIG. 6F); results for cyno cancer cell line CynoMK1 are shown in FIG. 6G; and results for mock transfected CHOK1 cells are shown in FIG. 6H.

[8] = molecular target: T3, ASCT1 (SLC1A4) (human, UniProt P43007 1-532); test: flow cytometry on SKMEL-2 cells after shRNA knockdown of ASCT1 (binding not ablated)
T3 construct: whole, on cells; also called ASC transporter 1; human ASCT1
T3 sequence (looked up): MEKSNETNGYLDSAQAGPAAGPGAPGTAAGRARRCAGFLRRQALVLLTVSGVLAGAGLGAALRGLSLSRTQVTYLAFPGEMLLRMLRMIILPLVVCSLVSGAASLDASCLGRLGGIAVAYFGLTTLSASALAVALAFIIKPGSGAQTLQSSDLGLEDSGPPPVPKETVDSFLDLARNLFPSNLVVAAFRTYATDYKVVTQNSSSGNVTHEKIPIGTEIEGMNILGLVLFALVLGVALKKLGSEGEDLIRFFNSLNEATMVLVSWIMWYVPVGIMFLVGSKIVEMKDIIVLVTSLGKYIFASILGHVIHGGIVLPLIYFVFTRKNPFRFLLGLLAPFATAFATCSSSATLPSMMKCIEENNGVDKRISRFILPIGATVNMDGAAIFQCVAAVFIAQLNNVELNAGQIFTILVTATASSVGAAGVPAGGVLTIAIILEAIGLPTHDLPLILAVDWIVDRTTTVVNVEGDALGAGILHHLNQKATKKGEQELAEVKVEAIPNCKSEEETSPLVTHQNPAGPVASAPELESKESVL

[9] = molecular target: T1, human ASCT2 (system ASC amino acid …); test: flow cytometry, titration of fluorophore-labelled antibody on Cal27 cells
Description: as §1, §2

[10] = molecular target: T1, human ASCT2 (system ASC amino acid …); test: flow cytometry, titration of fluorophore-labelled antibody on CHOK1 cells stably expressing human ASCT2
Description: as §1, §2

[11] = molecular target: T1, human ASCT2 (system ASC amino acid …); test: flow cytometry, titration of fluorophore-labelled antibody on SSC15 cells
Description: as §1, §2

[12] = molecular target: T1, human ASCT2 (system ASC amino acid …); test: flow cytometry, titration of fluorophore-labelled antibody on WiDr cells
Description: as §1, §2

[13] = molecular target: T2, cynomolgus monkey ASCT2; test: flow cytometry, titration of fluorophore-labelled antibody on cyno cell line Cyno MK1
Description: as §1, §2

[14] = molecular target: T1, human ASCT2 (system ASC amino acid …); test: flow cytometry, titration of fluorophore-labelled antibody on FaDu cells
Description: as §1, §2

[15] = molecular target: T1, human ASCT2 (system ASC amino acid …); test: flow cytometry on WiDr cells and CHO cells expressing HuASCT2
Description: The amino acid sequences of the VH and VL domains for 17c10 were aligned to the known human germline sequences in the VBASE database, and the closest germline was identified by sequence similarity. For the VH domain, this was IgVh4-34*01; for the VL domain, it was IgKv1-5*03. For 17c10, the germlining process involved reverting 1 framework residue in the VH domain and 5 residues in the VL domain. In the VH domain, the reversion mutation was at Kabat position 82a, where threonine (T) was reverted to serine (S). In the VL domain, the mutations were at Kabat position 13, 21, 39, 70, and 76 where at Kabat position 13 threonine (T) was reverted to alanine (A); at Kabat position 21 leucine (L) was reverted to isoleucine (I); at Kabat position 39 Asparagine (N) was reverted to lysine (K); at Kabat position 70 aspartate (D) was reverted to glutamate (E), and at Kabat position 76 threonine (T) was reverted to serine (S). These changes were made by synthesizing VH and VL domains with these mutations and replacing existing VH and VL using restriction digestion and ligation. Both the germlined and original (non-germlined) 17c10 were expressed as IgGs, and their affinity to multiple ASCT2-expressing cell lines was assessed by flow cytometry.

B1: anti-ASCT2 17C10 classically conjugated to tubulysin AZ1508 (antibody, human IgG1, V domains shown)
VH: QVQLQQWGAGLLKPSETLSLTCAVYGGSFSGYYWSWIRQPPGKGLEWIGEIHHSGGANYNPSLKSRVTISVDTSKNQFSLKLTSVTAADTAVYYCARGQGKNWHYDYFDYWGQGTLVTVSS
VL: DIQMTQSPSTLSTSVGDRVTLTCRASQSIRSWLAWYQQNPGKAPKLLIYKASILKIGVPSRFSGSGSGTDFTLTITSLQPDDFATYYCQQYYSYSRTFGQGTKVEIK
modifications: tubulysin AZ1508 conjugated classically (native cysteine residues, thiol-maleimide linkage); positions not given
For B1, the “IC50 (ng/ml), ADC-mediated cytotoxic killing, SW48 cells, CellTiter-Glo, 72 h” value [1] was 46 ng/mL.

B2: anti-ASCT2 antibody 17c10 conjugated to tubulysin AZ1508 (17c10-AZ1508, Example 4) (antibody, V domains shown)
VH: QVQLQQWGAGLLKPSETLSLTCAVYGGSFSGYYWSWIRQPPGKGLEWIGEIHHSGGANYNPSLKSRVTISVDTSKNQFSLKLTSVTAADTAVYYCARGQGKNWHYDYFDYWGQGTLVTVSS
VL: DIQMTQSPSTLSTSVGDRVTLTCRASQSIRSWLAWYQQNPGKAPKLLIYKASILKIGVPSRFSGSGSGTDFTLTITSLQPDDFATYYCQQYYSYSRTFGQGTKVEIK
modifications: tubulysin AZ1508 conjugated; mode and site of conjugation not stated for these experiments
notes: Antibody-drug conjugate; also called 17c10-ADC; ASCT2-ADC
B2 was tested, and the EC50 [2] was 8.6 nM, the “IC50 (ng/ml), cytotoxic killing of SKMEL-2 cells with ASCT1-shRNA1” value [3] was 7.59 ng/mL and the “IC50 (ng/ml), cytotoxic killing of SKMEL-2 cells with ASCT1-shRNA2” value [3] was 4.96 ng/mL. For the same binder, the “IC50 (ng/ml), cytotoxic killing of SKMEL-2 cells with ASCT2-shRNA” value [3] was 205 ng/mL, the “IC50 (ng/ml), cytotoxic killing of SKMEL-2 cells with NTshRNA” value [3] was 14.3 ng/mL and the EC50 [4] was 9.6 nM. For the same binder, the “Cytotoxicity IC50 (ng/ml), CHOK1 cells stably expressing human ASCT2” value [5] was 5.53 ng/mL and the “Cytotoxicity IC50 (ng/ml), CHOK1 cells stably expressing cyno ASCT2” value [6] was 8.59 ng/mL.

B3: anti-ASCT2 1E8 classically conjugated to tubulysin AZ1508 (antibody, human IgG1, V domains shown)
VH: QVQLQQWGAGLLKPSETLSLTCAVYGGSFSGYYWSWIPQPPGKGVEWIGEINHSGSTNYNPSLKSRVTISSDTSKNQFSLKLTSVTAADTAVYYCARGQGKNWNYDYFDYWGQGTLVTVSS
VL: DIQMTQSPSTLSASVGDRVTLTCRASQSIRSWLAWYQQKPGKAPKLLIYKASSLKSGVPSRFSGSGSGTDFTLTISSLQPDDFATYYCQQYYSFSRTFGQGTKVEIK
modifications: tubulysin AZ1508 conjugated classically (native cysteine residues, thiol-maleimide linkage); positions not given
In the case of B3, the “IC50 (ng/ml), ADC-mediated cytotoxic killing, SW48 cells, CellTiter-Glo, 72 h” value [1] is reported as 34.8 ng/mL.

B4: anti-ASCT2 antibody 17c10 (original, non-germlined, parental) (antibody, V domains shown)
VH: QVQLQQWGAGLLKPSETLSLTCAVYGGSFSGYYWSWIRQPPGKGLEWIGEIHHSGGANYNPSLKSRVTISVDTSKNQFSLKLTSVTAADTAVYYCARGQGKNWHYDYFDYWGQGTLVTVSS
VL: DIQMTQSPSTLSTSVGDRVTLTCRASQSIRSWLAWYQQNPGKAPKLLIYKASILKIGVPSRFSGSGSGTDFTLTITSLQPDDFATYYCQQYYSYSRTFGQGTKVEIK
notes: also called 17c10 parental antibody; ASCT2 mAb 17c10
With B4 the EC50 [7] was 9.6 nM, the binding result [8] was “no binding” and the EC50 [9] was 2.8 nM. The EC50 [10] was 8.6 nM, the EC50 [11] was 3.6 nM and the EC50 [12] was 7 nM. It also gave an EC50 [13] of 6.7 nM and an EC50 [14] of 3.8 nM.

B5: anti-ASCT2 antibody 1e8 conjugated to tubulysin AZ1508 (Example 4) (antibody, V domains shown)
VH: QVQLQQWGAGLLKPSETLSLTCAVYGGSFSGYYWSWIPQPPGKGVEWIGEINHSGSTNYNPSLKSRVTISSDTSKNQFSLKLTSVTAADTAVYYCARGQGKNWNYDYFDYWGQGTLVTVSS
VL: DIQMTQSPSTLSASVGDRVTLTCRASQSIRSWLAWYQQKPGKAPKLLIYKASSLKSGVPSRFSGSGSGTDFTLTISSLQPDDFATYYCQQYYSFSRTFGQGTKVEIK
modifications: tubulysin AZ1508 conjugated; mode and site of conjugation not stated for these experiments
notes: Antibody-drug conjugate; also called 1e8 conjugated to tubulysin 1508
For B5, the EC50 [2] was 8.1 nM, the EC50 [4] was 28.4 nM and the “Cytotoxicity IC50 (ng/ml), CHOK1 cells stably expressing human ASCT2” value [5] was 20.7 ng/mL. The “Cytotoxicity IC50 (ng/ml), CHOK1 cells stably expressing cyno ASCT2” value [6] was 140 ng/mL.

B6: anti-ASCT2 antibody 1e8 (original) (antibody, V domains shown)
VH: QVQLQQWGAGLLKPSETLSLTCAVYGGSFSGYYWSWIPQPPGKGVEWIGEINHSGSTNYNPSLKSRVTISSDTSKNQFSLKLTSVTAADTAVYYCARGQGKNWNYDYFDYWGQGTLVTVSS
VL: DIQMTQSPSTLSASVGDRVTLTCRASQSIRSWLAWYQQKPGKAPKLLIYKASSLKSGVPSRFSGSGSGTDFTLTISSLQPDDFATYYCQQYYSFSRTFGQGTKVEIK
notes: also called ASCT2 mAb 1e8
B6 gave an EC50 [7] of 28.4 nM, an EC50 [9] of 13 nM and an EC50 [10] of 8.1 nM. For the same binder, the EC50 [11] was 8.8 nM, the EC50 [12] was 5.8 nM and the EC50 [13] was 14.8 nM. The EC50 [14] was 6.8 nM.

B7: germlined 17c10 antibody (antibody, V domains shown)
VH: QVQLQQWGAGLLKPSETLSLTCAVYGGSFSGYYWSWIRQPPGKGLEWIGEIHHSGGANYNPSLKSRVTISVDTSKNQFSLKLSSVTAADTAVYYCARGQGKNWHYDYFDYWGQGTLVTVSS
VL: DIQMTQSPSTLSASVGDRVTITCRASQSIRSWLAWYQQKPGKAPKLLIYKASILKIGVPSRFSGSGSGTEFTLTISSLQPDDFATYYCQQYYSYSRTFGQGTKVEIK
notes: also called 17c10 germlined antibody
B7: binds [15].
